From patent US20210395718A1, “NOVEL KETOSE 3-EPIMERASE” (NATIONAL UNIVERSITY CORPORATION KAGAWA UNIVERSITY, priority 2018, published 2021)

How the values were obtained:
[1] = test system: ketose 3-epimerase (present enzyme, purified enzyme of wild strain); test: Substrate specificity of ketose 3-epimerase using 8 kinds of ketohexoses; type: biochemical, Arthrobacter histidinolovorans Y586-1 strain; details: each substrate 0.1 M, phosphate buffer pH 8.0, 70° C., 10 min; epimerization activity for D-allulose = 100
Protocol: The substrate specificity of the present enzyme after purification was investigated using 8 kinds of ketohexoses. […] After a reaction at 70° C. for 10 minutes, the reaction mixture was analyzed by HPLC to measure a ketose produced by epimerization of each sugar.
Supposing that the epimerization activity for D-allulose is 100, the activity for each ketose is shown as a relative activity.

[2] = Thermal stability: residual activity after incubation at 60° C. for one hour; type: biochemical; details: crude recombinant enzyme; after incubation at 60° C. for 1 hour
Protocol: Thermal stability of the enzyme was investigated by measuring the activity of the enzyme after incubation at 60° C. for one hour and finding its relative activity supposing that the activity at 60° C. under the reaction conditions (10 minutes) used for determining the optimum temperature in the above 2 shown in Table 2 was 100. As heat treatment conditions, the crude enzyme solution, a buffer (50 mM tris-HCl, pH 7.5), and 2 mM MgCl2 were used to give a total amount of 200 p1 and after retaining at 60° C. for one hour, the reaction mixture was cooled for 10 minutes in ice water. The residual enzyme activity was then measured by the conventional method.
The activity of each of the present enzyme (crude recombinant enzyme) and the crude enzyme of the control enzyme after incubation at 60° C. for 1 hour was measured and a relative activity of it was determined supposing that the activity at 60° C. under the reaction conditions (10 minutes) for determining the optimum temperature in the above 2 shown in Table 2 is 100. The relative activity was used as a heat resistance index of the enzyme. As heat treatment conditions, the crude enzyme solution, a buffer (50 mM tris-HCl, pH 7.5), and 2 mM MgCl2 were used to give a total amount of 200 p1 and after retaining at 60° C. for one hour, the reaction mixture was cooled for 10 minutes in ice water. The residual enzyme activity was measured by the conventional method.

[3] = Ketose 3-epimerase activity ratio (T70/T50) at reaction temperature of 70° C. to 50° C.; type: biochemical; details: crude recombinant enzyme; ratio of activity at 70° C. to activity at 50° C., 10 min reaction
Protocol: An enzyme having higher heat resistance than an amino acid substitution-free wild type enzyme can be obtained by introducing mutation into the gene of the ketose 3-epimerase of the present invention and substituting the corresponding amino acid residue with another amino acid residue by a site-directed mutagenesis operation to prepare various amino acid-substituted mutants. The heat resistance is evaluated by two indices, that is, a ketose 3-epimerase activity ratio (T70/T50) at the reaction temperatures of 70° C. to 50° C. and a residual activity after incubation at 60° C. for one hour.
Heat resistance of the present enzyme (crude recombinant enzyme) and the crude enzyme of the control enzyme was investigated by measuring an activity at 70° C. and an activity at 50° C. under the reaction conditions (10 minutes) used for determining the optimum temperature in the above 2 shown in Table 2 and finding their ratio (T70/T50).

| Molecule | Relative activity (%) [1] | Residual activity (%) [2] [%] | T70/T50 [3] |
| --- | --- | --- | --- |
| O=C(CO)[C@@H](O)[C@H](O)[C@@H](O)CO [L-sorbose] | trace | – | – |
| O=C(CO)[C@@H](O)[C@H](O)[C@H](O)CO [D-fructose] | 43.4% | – | – |
| O=C(CO)[C@H](O)[C@@H](O)[C@@H](O)CO [L-fructose] | trace | – | – |
| O=C(CO)[C@H](O)[C@H](O)[C@@H](O)CO [L-tagatose] | 59.2% | – | – |
| O=C(CO)[C@H](O)[C@@H](O)[C@H](O)CO [D-sorbose] | trace | – | – |
| O=C(CO)[C@@H](O)[C@@H](O)[C@H](O)CO [D-tagatose] | 72.2% | – | – |
| O=C(CO)[C@H](O)[C@H](O)[C@H](O)CO [D-allulose] | 100.0% | – | – |
| O=C(CO)[C@@H](O)[C@@H](O)[C@@H](O)CO [L-allulose] | 27.1% | – | – |
| Ketose 3-epimerase mutant 36: amino acid-substituted mutant of SEQ ID NO: 1 (protein, Arthrobacter histidinolovorans) MKIGCHGLVWTGRFDAEGIRYSVQKTKEAGFDLIEFPLMDPFSFDVATAKSALAEHGLTASASLGLSEATDVSSEDPAIVKAGEELLNRALDVVAELGATDFCGVIYSAMKKYMEPATEQGLSNSKAAVGRVVDRAAGLGINVSLEVVNRYETNVLNTGRQALSYLSDVKRPNLGVHLDTYHMNIEESDMFSPVLDTAEALKYVHIGESHRGYLGTGSVDFDNFFKALGRIGYDGPVVFESFSSAVVAPDLSRMLGIWRNLWADNEELGAHANAFIRDKLTAIKTIELH | – | 57.0 | 1.30 |
| Ketose 3-epimerase mutant 37: amino acid-substituted mutant of SEQ ID NO: 1 (protein, Arthrobacter histidinolovorans) MKIGCHGLVWTGRFDAEGIRYSVQKTKEAGFDLIEFPLMDPFSFDVATAKSALAEHGLTASASLGLSEATDVSSEDPAIVKAGEELLNRALDVLAELGATDFCGVIYSSMKKYMEPATEQGLSNSKAAVGRVVDRAAGLGINVSLEVVNRYETNVLNTGRQALSYLSDVKRPNLGVHLDTYHMNIEESDMFSPVLDTAEALKYVHIGESHRGYLGTGSVDFDNFFKALGRIGYDGPVVFESFSSAVVAPDLSRMLGIWRNLWADNEELGAHANAFIRDKLTAIKTIELH | – | 63.3 | 1.07 |
| Ketose 3-epimerase mutant 1: amino acid-substituted mutant of SEQ ID NO: 1 (protein, Arthrobacter histidinolovorans) MKIGCHGLVWTGRFDAEGIRYSVQKTKEAGFDLIEFPLMDPFSFDVATAKSALAEHGLSVSASLGLSEATDVSSEDPAIVKAGEELLNRALDVLAELGATEFCGVIYSAMKKYMEPATEQGLSNSKAAIGRVVDRAAGLGINVSLEVVNRYETNVLNTGRQALSYLSDVKRPNLGVHLDTYHMNIEESDMFSPVLDTAEVLKYVHIGESHRGYLGTGNVDFDNFFKALGRIGYDGPVVFESFSSAVVAPDLSRMLGIWRNLWADNEELGAHANAFIRDKLTAIKTIELH | – | 74.1 | 2.37 |
| Ketose 3-epimerase mutant 2: amino acid-substituted mutant of SEQ ID NO: 1 (protein, Arthrobacter histidinolovorans) MKIGCHGLVWTGRFDAEGIRYSVQKTKEAGFDLIEFPLMDPFSFDVATAKSALAEHGLTASASLGLSEATDVSSEDPAIVKAGEELLNRALDVLAELGATDFCGVIYSAMKKYMEPATEQGLSNSKAAVGRVVDRAAGLGINVSLEVVNRYETNVLNTGRQALSYLSDVKRPNLGVHLDTYHMNIEESDMFSPVLDTAEVLKYVHIGESHRGYLGTGNVDFDNFFKALGRIGYDGPVVFESFSSAVVAPDLSRMLGIWRNLWADNEELGAHANAFIRDKLTAIKTIELH | – | 83.3 | 2.31 |
| Ketose 3-epimerase mutant 3: amino acid-substituted mutant of SEQ ID NO: 1 (protein, Arthrobacter histidinolovorans) MKIGCHGLVWTGRFDAEGIRYSVQKTKEAGFDLIEFPLMDPFSFDVATAKSALAEHGLTASASLGLSEATDVSSEDPAIVKAGEELLNRALDVLAELGATEFCGVIYSAMKKYMEPATEQGLSNSKAAIGRVVDRAAGLGINVSLEVVNRYETNVLNTGRQALSYLSDVKRPNLGVHLDTYHMNIEESDMFSPVLDTAEVLKYVHIGESHRGYLGTGSVDFDNFFKALGRIGYDGPVVFESFSSAVVAPDLSRMLGIWRNLWADNEELGAHANAFIRDKLTAIKTIELH | – | 94.5 | 2.11 |
| Ketose 3-epimerase mutant 4: amino acid-substituted mutant of SEQ ID NO: 1 (protein, Arthrobacter histidinolovorans) MKIGCHGLVWTGRFDAEGIRYSVQKTKEAGFDLIEFPLMDPFSFDVATAKSALAEHGLSVSASLGLSEATDVSSEDPAIVKAGEELLNRALDVLAELGATDFCGVIYSAMKKYMEPATEQGLSNSKAAVGRVVDRAAGLGINVSLEVVNRYETNVLNTGRQALSYLSDVKRPNLGVHLDTYHMNIEESDMFSPVLDTAEVLKYVHIGESHRGYLGTGNVDFDNFFKALGRIGYDGPVVFESFSSAVVAPDLSRMLGIWRNLWADNEELGAHANAFIRDKLTAIKTIELH | – | 123.2 | 2.08 |
| Ketose 3-epimerase mutant 5: amino acid-substituted mutant of SEQ ID NO: 1 (protein, Arthrobacter histidinolovorans) MKIGCHGLVWTGRFDAEGIRYSVQKTKEAGFDLIEFPLMDPFSFDVATAKSALAEHGLSVSASLGLSEATDVSSEDPAIVKAGEELLNRALDVLAELGATDFCGVIYSAMKKYMEPATEQGLSNSKAAIGRVVDRAAGLGINVSLEVVNRYETNVLNTGRQALSYLSDVKRPNLGVHLDTYHMNIEESDMFSPVLDTAEVLKYVHIGESHRGYLGTGSVDFDNFFKALGRIGYDGPVVFESFSSAVVAPDLSRMLGIWRNLWADNEELGAHANAFIRDKLTAIKTIELH | – | 85.1 | 2.07 |
| Ketose 3-epimerase mutant 6: amino acid-substituted mutant of SEQ ID NO: 1 (protein, Arthrobacter histidinolovorans) MKIGCHGLVWTGRFDAEGIRYSVQKTKEAGFDLIEFPLMDPFSFDVATAKSALAEHGLTASASLGLSEATDVSSEDPAIVKAGEELLNRALDVLAELGATDFCGVIYSAMKKYMEPATEQGLSNSKAAVGRVVDRAAGLGINVSLEVVNRYETNVLNTGRQALSYLSDVKRPNLGVHLDTYHMNIEESDMFSPVLDTAEALKYVHIGESHRGYLGTGNVDFDNFFKALGRIGYDGPVVFESFSSAVVAPDLSRMLGIWRNLWADNEELGAHANAFIRDKLTAIKTIELH | – | 101.2 | 2.05 |
